This note sets out measurements from patent US20090035300A1 (published 2009).

The assay concerns the target FLAG-CtBP1 (full-length CtBP1 in pFLAG-CMV-2), expressed in 293 HEK cells (UniProt Q13363 1-440). The assay can be described thus: co-immunoprecipitation from transfected 293 HEK cells. As to the method: 293 HEK cells (8×10⁵) were plated in 6-well plates and transfected with 10 μl Lipofectamine 2000 (Invitrogen Life Technologies) and 1 μg of DNA. Cells were harvested one day after transfection. THP-1 cells (4×10⁶) were brought to a final volume of 0.8 ml and electroporated with 20 μg of DNA in total. Electroporation took place in a 0.2-cm cuvette (Bio-Rad) at 300 V and 960 μF. Day 6 immature human Mo-DCs were transduced with Ad5fib35hDC-SCRIPT-green fluorescence protein (GFP) at a multiplicity of infection of 1000 as described previously (Crucell, Leiden, the Netherlands) (Havenga, M J E et al. (2002) J. Virol. 76, 4612-4620.).
Whole cell lysates were prepared in 1% SDS standard lysis buffer. Equal amounts of protein were separated by SDS-PAGE electrophoresis and proteins were transferred to Protran Nitrocellulose Transfer Membrane (Schleicher and Schuell BioScience). The following primary antibodies were used; Mouse anti-GFP (0.04 μg/ml; Roche), mouse anti-myc (0.2 μg/ml; Invitrogen Life Technologies), M2 mouse anti-FLAG 1 μg/ml (Sigma-Aldrich), mouse anti-Epstein-Barr Virus (anti-EBV) mAb, BZLF1 Protein, ZEBRA, clone BZ.1 (DakoCytomation) in combination with a second HRP conjugated Goat anti-Mouse IgG (H+L) antibody (0.4 μg/ml; Pierce). Inmmunoprecipitation was performed in a standard RIPA/1% Triton X-100 buffer for 3 h at 4° C., using protein G beads. […]

Positions count from the first letter of the chain named. Names may count otherwise.

B1: YFP fusion of the acidic region of DC-SCRIPT with both motifs mutated (L593A and L648A) (pEYFP-C1), expressed in 293 HEK cells (other)
chain: EQEEPFDASQKRRAKVPVFQSDGESAQGSHCHEEEEEDNCYEVEPYSPGLAPQSQQLCTPEDASTKSEHAPEVLEEACKEEKEDASKGEWEKRSKGDLGAEGGQE
notes: also called Ac/double mut; not shown: yellow fluorescence protein (YFP) encoded by pEYFP-C1
Take B1: the binding result was “no binding”.

B2: YFP fusion of the acidic region of DC-SCRIPT with the first motif mutated (L593A) (pEYFP-C1), expressed in 293 HEK cells (other)
chain: B1 chain with A63L
notes: also called Ac/mut1; not shown: yellow fluorescence protein (YFP) encoded by pEYFP-C1
B2: the binding result is “no binding”.
